The values that follow come from publication PMC10761686.

Assay [1] addresses actin from rabbit skeletal muscle, as filaments (F-actin) capped at their barbed ends by gelsolin (rabbit) (UniProt P68135).
Assay [2] has the same target. The source holds these as a separate data set.

Take “tropomodulin 1 (TMOD1) with the patient variant p.R189W, purified recombinant human (from UniProt P28289-1 1-359) (natural protein)”: in assay [1], the capping activity against TMOD1^wt: inhibition of pyrene-actin polymerisation at pointed ends of long filaments (1:100 gelsolin to actin), without TPM1 (fold weaker than TMOD1^wt) came to 2 and the capping activity against TMOD1^wt: inhibition of pyrene-actin polymerisation at pointed ends of short filaments (1:10 gelsolin to actin), without TPM1 (fold weaker than TMOD1^wt) came to 2. In assay [2], this substance yielded an inhibition of pyrene-actin depolymerisation from pointed ends against TMOD1^wt, long filaments (1:100 gelsolin to actin), without TPM1 (fold weaker than TMOD1^wt) of 2 and an inhibition of pyrene-actin depolymerisation from pointed ends against TMOD1^wt, short filaments (1:10 gelsolin to actin), without TPM1 (fold weaker than TMOD1^wt) of 5.
